PMC8494293, “Relief of ParB autoinhibition by parS DNA catalysis and recycling of ParB by CTP hydrolysis promote bacterial centromere assembly” (Science Advances, 2021)
Substitutions are numbered along the chain they refer to. Names and notes keep the numbering of the source. One block for each molecule: values may come before it.

What was measured:
ParB(E111Q) [1] = molecular target: T1, ParB(E111Q) (Bacillus subtilis, UniProt P26497, E111Q); assay: ITC; also N-gate cross-linking and BLI DNA loading; no appreciable hydrolysis; type: binding
T1 construct: gene spo0J; full-length, untagged
T1 sequence (P26497 1-282 E111Q): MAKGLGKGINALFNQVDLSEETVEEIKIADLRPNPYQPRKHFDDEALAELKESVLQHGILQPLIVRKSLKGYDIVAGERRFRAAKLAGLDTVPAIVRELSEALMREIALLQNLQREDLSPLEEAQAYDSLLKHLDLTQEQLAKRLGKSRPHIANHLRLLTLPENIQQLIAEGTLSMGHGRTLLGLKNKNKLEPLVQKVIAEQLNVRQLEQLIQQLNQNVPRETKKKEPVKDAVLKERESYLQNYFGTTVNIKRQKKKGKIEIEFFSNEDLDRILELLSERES

ParB(E78Q) [2] = molecular target: T2, ParB(E78Q) (Bacillus subtilis, UniProt P26497, E78Q); assay: as above; type: binding
T2 construct: gene spo0J; full-length, untagged
T2 sequence (P26497 1-282 E78Q): T1 sequence (P26497 1-282 E111Q) with E78Q, Q111E

ParB [3] = molecular target: T3, ParB (Bacillus subtilis, UniProt P26497); assay: ITC; also CTP hydrolysis (malachite green), N-gate cross-linking and BLI DNA loading; type: binding
T3 construct: gene spo0J; full-length, untagged
T3 sequence (P26497 1-282): T1 sequence (P26497 1-282 E111Q) with Q111E

ParB(E111Q) [4] = molecular target: T1, ParB(E111Q); assay: N-gate closure by BMOE cross-linking (T22C); BLI DNA loading; type: biochemical
ParB(E78Q) [5] = molecular target: T2, ParB(E78Q); assay: as above; type: biochemical
ParB [6] = molecular target: T3, ParB; assay: BLI of ParB loading on and dissociation from parS DNA with nucleotide; N-gate cross-linking; type: biochemical
[7] = molecular target: the molecule itself; assay: cross-linking; in vitro BMOE (1 mM) cysteine cross-linking, 10 uM ParB, with or without 1 mM CTP or CTPγS and 1 uM 40-bp parS DNA, 150 mM NaCl, 50 mM tris-HCl pH 7.5, 5 mM MgCl2, room temperature; SDS-PAGE, Coomassie
[8] = molecular target: T4, ParB(T22C, E78Q)-HT, P26497; assay: in vivo BMOE cysteine cross-linking (SDS-PAGE, HaloTag TMR in-gel fluorescence, band quantification); conditions: chain shown with the change, read off a plot
T4 chain: T1 sequence (P26497 1-282 E111Q) with T22C, E78Q, Q111E

[9] = molecular target: T5, ParB(R105C, H133C, E78Q)-HT, P26497; assay: as above; conditions: chain shown with the change, Inter XL plus Inter 2XL species, read off a plot
T5 chain: T1 sequence (P26497 1-282 E111Q) with E78Q, R105C, Q111E, H133C

[10] = molecular target: T6, ParB(R105C, H133C, E111Q)-HT, P26497; assay: as above; conditions: chain shown with the change, Inter XL plus Inter 2XL species, read off a plot
T6 chain: T1 sequence (P26497 1-282 E111Q) with R105C, H133C

[11] = molecular target: T7, ParB(T22C, E111Q)-HT, P26497; assay: as above; conditions: chain shown with the change, read off a plot
T7 chain: T1 sequence (P26497 1-282 E111Q) with T22C

[12] = parS: Δ8 (strain lacking the 8 parS sites)

Molecule: Nc1ccn([C@@H]2O[C@H](COP(=O)(O)OP(=O)(O)OP(=O)(O)O)[C@@H](O)[C@H]2O)c(=O)n1 [CTP]
Kd (ParB(E111Q) [1]): 5 to 8 µM | Kd (ParB(E78Q) [2]): 5 to 8 µM | Kd (ParB [3]): 5 to 8 µM

Molecule: Nc1ccn([C@@H]2O[C@H](COP(=O)(O)OP(=O)(O)OP(O)(O)=S)[C@@H](O)[C@H]2O)c(=O)n1 [CTPγS]
N-gate closure by BMOE cross-linking (T22C); BLI DNA loading (ParB(E111Q) [4]): we found that the EQ mutants supported N-gate closure equally well with CTP and CTPγS | N-gate closure by BMOE cross-linking (T22C); BLI DNA loading (ParB(E78Q) [5]): we found that the EQ mutants supported N-gate closure equally well with CTP and CTPγS | BLI of ParB loading on and dissociation from parS DNA with nucleotide; N-gate cr (ParB [6]): differences in the dissociation rates between wild-type and EQ proteins were eliminated when CTPγS was used instead of CTP

other: fraction of cross-linked dimers ([8]; N-N XL species): 0.57 | other: fraction of cross-linked species ([8]; parS: All): 0.72 | other: fraction of cross-linked species [8, 12]: 0.52
B1: ParB(T22C, E78Q) (natural protein, B. subtilis, UniProt P26497 1-282, looked up)
chain: T1 sequence (P26497 1-282 E111Q) with T22C, E78Q, Q111E
notes: ParB, B. subtilis, untagged recombinant protein, CTP hydrolysis-defective mutant with the T22C reporter cysteine; source: E. coli BL21-Gold (DE3), purified (ammonium sulfate, heparin, HiTrap SP, Superdex 200)
binding result [7]: binds

other: fraction of cross-linked dimers [9]: 0.77
B2: ParB-HT (wt) R105C; H133C; E78Q (protein)
chain: T1 sequence (P26497 1-282 E111Q) with E78Q, R105C, Q111E, H133C

other: fraction of cross-linked dimers [10]: 0.2
B3: ParB-HT (wt) R105C; H133C; E111Q (protein)
chain: T1 sequence (P26497 1-282 E111Q) with R105C, H133C

B4: ParB(T22C) (natural protein, B. subtilis, UniProt P26497 1-282, looked up)
chain: T1 sequence (P26497 1-282 E111Q) with T22C, Q111E
notes: ParB, B. subtilis, untagged recombinant protein with a cysteine at the N-gate; source: E. coli BL21-Gold (DE3), purified (ammonium sulfate, heparin, HiTrap SP, Superdex 200)
binding result [7]: binds

B5: ParB(A102C, H133C) (natural protein, B. subtilis, UniProt P26497 1-282, looked up)
chain: T1 sequence (P26497 1-282 E111Q) with A102C, Q111E, H133C
notes: ParB, B. subtilis, untagged recombinant protein with cysteines at the N-M interface; source: E. coli BL21-Gold (DE3), purified (ammonium sulfate, heparin, HiTrap SP, Superdex 200)
binding result [7]: binds

B6: ParB(R105C, H133C) (natural protein, B. subtilis, UniProt P26497 1-282, looked up)
chain: T1 sequence (P26497 1-282 E111Q) with R105C, Q111E, H133C
notes: as for B5
binding result [7]: binds

other: fraction of cross-linked dimers ([11]; N-N XL species): 0.36 | other: fraction of cross-linked species ([11]; parS: All): 0.49 | other: fraction of cross-linked species [11, 12]: 0.45
B7: ParB(T22C, E111Q) (natural protein, B. subtilis, UniProt P26497 1-282, looked up)
chain: T1 sequence (P26497 1-282 E111Q) with T22C
notes: as for B1
binding result [7]: binds
